From patent US20160347804A1 (IPIERIAN, published 2016) come the findings set out here.

The target in test [1] is T1, eTau4 (human, UniProt P10636 2-124).
T1 construct: Recombinant eTau fragment; also called recombinant eTau4
The experiment in a line: direct binding ELISA, antibody titrated on eTau4, OD-450 nm. (In an ELISA, binding on a coated surface is turned into a signal by an enzyme label.)

Test [2] has as its target full-length recombinant tau (0N4R) (UniProt P10636 1-383). The experiment in a line: direct binding ELISA, antibody titrated on rTau383, OD-450 nm.
The next test deals with T2, eTau1 (human, UniProt P10636 2-547).
T2 construct: also called recombinant eTau1 fragment; eTau 2-172
T2 sequence (P10636 other isoform, or with tags, fused parts or gaps limits assumed): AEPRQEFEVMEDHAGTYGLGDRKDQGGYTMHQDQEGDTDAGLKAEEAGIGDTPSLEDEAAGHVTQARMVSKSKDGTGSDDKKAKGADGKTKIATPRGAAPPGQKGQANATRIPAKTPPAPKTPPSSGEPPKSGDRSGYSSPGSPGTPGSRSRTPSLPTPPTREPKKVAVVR
The experiment in a line: direct binding assay, purified mAb, recombinant eTau fragment.

Another test concerns the target T3, eTau2 (human, UniProt P10636 2-526).
T3 construct: Recombinant eTau fragment; also called recombinant eTau2; reTau2
The description is as above.

In the next test the target is T4, eTau3 (human, UniProt P10636 2-497).
T4 construct: Recombinant eTau fragment; also called recombinant eTau3; reTau3
T4 sequence (P10636 other isoform, or with tags, fused parts or gaps limits assumed): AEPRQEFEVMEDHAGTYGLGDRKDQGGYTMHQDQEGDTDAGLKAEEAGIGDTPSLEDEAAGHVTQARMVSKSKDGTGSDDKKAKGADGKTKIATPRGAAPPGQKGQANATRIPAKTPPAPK
The description is as above.

Test [3] has as its target T1, eTau4. Described as above.
The target of test [4] is T5, full-length recombinant tau (0N4R) (UniProt P10636-6 1-383).
T5 construct: The screening step used biotin-labeled full-length tau; also called rTau383
T5 sequence (P10636 other isoform, or with tags, fused parts or gaps limits assumed): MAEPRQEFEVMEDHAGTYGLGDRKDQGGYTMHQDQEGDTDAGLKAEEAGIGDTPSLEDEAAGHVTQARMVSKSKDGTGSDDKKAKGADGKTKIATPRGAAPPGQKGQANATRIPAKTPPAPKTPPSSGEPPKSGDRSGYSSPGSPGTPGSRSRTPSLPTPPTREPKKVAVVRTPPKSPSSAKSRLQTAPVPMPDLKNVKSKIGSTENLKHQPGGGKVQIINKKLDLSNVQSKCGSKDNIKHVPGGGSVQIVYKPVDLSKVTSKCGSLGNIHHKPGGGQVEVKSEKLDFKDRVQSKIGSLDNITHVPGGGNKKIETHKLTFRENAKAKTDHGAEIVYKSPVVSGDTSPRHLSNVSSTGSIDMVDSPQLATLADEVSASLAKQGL
As to the kind of experiment: direct binding ELISA-type assay, purified mAb, full-length recombinant tau 0N4R.

Test [5] concerns the target T5, full-length recombinant tau (0N4R). The experiment in a line: direct binding ELISA, antibody titrated on rTau383, OD-450 nm.

T3 sequence (P10636 other isoform, or with tags, fused parts or gaps limits assumed): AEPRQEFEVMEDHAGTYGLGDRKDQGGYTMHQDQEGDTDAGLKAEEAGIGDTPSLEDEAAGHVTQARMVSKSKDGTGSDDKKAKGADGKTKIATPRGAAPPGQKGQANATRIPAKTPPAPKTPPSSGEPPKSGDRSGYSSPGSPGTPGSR
T1 sequence (P10636 other isoform, or with tags, fused parts or gaps limits assumed): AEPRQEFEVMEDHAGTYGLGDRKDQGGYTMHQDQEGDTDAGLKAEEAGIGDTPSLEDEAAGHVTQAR

B1: IPN002 (antibody, V domains shown)
VH: EVHLVESGGALVKPGGSLKLSCAASGFSFSKYGMSWVRQTPDKRLEWVATISSSGSRTYYPDSVKGQFTISRDNAKNTLYLQMSSLKSEDTAMYYCSISWDGAMDYWGQGTSVTVSS
VL: DVLMTQTPLSLPVSLGDQASISCKSSQSIVHSNGNTYLEWYLQKPGQSPKLLVYKVSNRFSGVPDRFSGSGSGTDFTLKISRVEAEDLGTYYCFQGSLVPWAFGGGTKLEIK
The term EC50 (read off the curve) denotes the concentration giving half of the maximal effect. For the molecule B1, the “EC50 (read off the curve)” value was ~0.1 nM with eTau4 [1] and ~0.07 nM in test [2].

B2: 7295-M6 (antibody, V domains shown)
VH: EVQLEESGAELVRSGASVTLSCTASGFNIKDYYIHWVKQRPEQGLEWIGWIDPENGDTEYAPKFQGKATMTADTSSNTAYLQLSSLTSEDTAVYYCNGAPGYWGPGTTLTVSS
VL: DIVLTQTPLSLPVSLGDPASISCRSSQTIVHSNGNTYLEWYLQKPGQSPKLLIYKVSNRFSGVPDRFSGSGSGTDFTLKISRVEAEDLGVYYCFQGSHVPFTFGSGTKLEIKR
notes: also called anti-Tau mAb 7295-M6
As a reminder, the Kd is the free concentration of one partner at which half of the binding sites on the other are occupied at equilibrium, for simple one-to-one binding. Consider B2, for which the Kd in the test with eTau1 turned out to be 0.0528 nM; in test [4], 0.117 nM. The binding result with eTau2, with eTau3 and with eTau4 [3] was “no binding” throughout.

B3: 7295-M8 (antibody, IgG2b, V domains shown)
VH: EVQLEESGAELVRSGASVTLSCTASGFNIKDYYIHWVKQRPEQGLEWIGWIDPENGDTEYAPKFQGKATMTADTSSNTAYLQLSSLTSEDTAVYYCNGAPGYWGPGTTLTVSS
VL: DIVLTQTPLSLPVSLGDPASISCRSSQTIVHSNGNTYLEWYLQKPGQSPKLLIYKVSNRFSGVPDRFSGSGSGTDFTLKISRVEAEDLGVYYCFQGSHVPFTFGSGTKLEIKR
notes: also called anti-Tau mAb 7295-M8
With B3, the Kd with eTau1 came to 0.044 nM; in test [4], 0.08 nM. In addition, the binding result with eTau2, in the test with eTau3 and with eTau4 [3] was “no binding” in each case.

B4: 7299-M2 (antibody, IgG1, V domains shown)
VH: QVQLEESGAELVKPGASVKLSCKASGYTFTNYWINWVKQRPGQGLEWIGNIYPGSTRANYNEKFKSKATLTVDTSSSTAYMQVSSLTSDDSAVYYCTRTHSIWGQGTQVTVSA
VL: DIVLTQTPLTLSVTIGQPASISCKSSQSLLYSDGKTFLNWLLQSPGQSPRLLIYLVSKLQSGVPDRFSGSGSGTDFTLKISRVEAEDLGVYYCVQGTHFPYTFGGGTKLEIKR
B4: the binding result with eTau1 was “no binding”; in the test with eTau2, “no binding”; with eTau3, “no binding”; in test [5], “no binding (tested: log -8.2 M (about 6e-9 M))”. The Kd in the test with eTau4 [3] came to 0.8 nM. In addition, in the test with eTau4 [1], the “EC50 (read off the curve)” value was ~0.03 nM.

B5: 7299-M9 (antibody, IgG1, V domains shown)
VH: EVKLEQSGAELVKPGASVKLSCKASGYTFTNYWINWVKQRPGQGLEWIGNIYPGSTRANYNEKFKSKATLTVDTSSSTAYMQVSSLTSDDSAVYYCTRTHSIWGQGTQVTVSA
VL: DIVITQSPLSLSVTIGQPASISCKSSQSLLYSDGKTYLNWLQQRPGQSPKRLVYQVSKLDPGIPDRFSGSGSETDFTLKLSRVEAEDLGVYYCLQGTYYPHTFGGGTKLEIKR
With B5, the Kd with eTau1 came out at 0.6 nM; with eTau2 it was 0.7 nM; in the test with eTau3, 1 nM; in the test with eTau4 [3], 0.6 nM; in test [4], 0.277 nM.

B6: 7298-M1 (antibody, IgG2a, V domains shown)
VH: EVQLEESGGGLVQPGGSLSLSCAASGFTFTDYYMSWVRQPPGKALEWVALNRNKTKGYTTEYSASVKGRFTISRDNSQSILYLQMNALRAEDSATYYCARGMDYWGQGTSVTVSS
VL: DIVLTQSPTSLAVSLGQRATISCRASKSVSTSDYSYMHWYQQKPGQPPKLLIYLASNLESGVPARFSGSGSGTDFTLNIHPVEEEDAATYYCQHSRELPFTFGGGTKLEIKR
notes: also called anti-Tau mAb 7298-M1
Take B6: the Kd with eTau1 came out at 3 nM; in the test with eTau2 it was 1 nM; in the test with eTau3, 0.1 nM; in test [4], 6.68 nM. Further, the binding result with eTau4 [3] is “no binding”.

B7: 7298-M2 (antibody, IgG2a, V domains shown)
VH: EVQLEESGGGLVKPGGSLKLSCAASGFTFSTYPMSWVRQTPEKRLEWVASISNGGSTYYPDTVKGRFTISRDNARNILYLQMSSLRSEDTAMYYCARGRDYHFDFWGQGTTLTVSS
VL: DIVLTQSPTSLAVSLGQRATISCRASKSVSTSDYSYMHWYQQKPGQPPKLLIYLASNLESGVPARFSGSGSGTDFTLNIHPVEEEDAATYYCQHSRELPFTFGGGTKLEIKR
notes: also called anti-Tau mAb 7298-M2
In the case of B7, the Kd in the test with eTau1 amounted to 2 nM; with eTau2, 0.7 nM; with eTau3, 0.08 nM; in test [4] it was 4.41 nM. Also, in the test with eTau4 [3], the binding result is recorded as “no binding”.

B8: 7297-2M1 (antibody, IgG1, V domains shown)
VH: EVQLEQSGAELVKPGASVKLSCKASGYTFISNWMHWVKQRPGQGLEWIGNIDPSDSETHYNQKFKDKATLTVDKSSSTAYMQLSSLTSEDSAVYYCARRDRDGYYFDYWGQGTTLTVSS
VL: DIVLTQTPSSLSASLGGKVTITCKASQDINKYIAWYQHKPGKGPRLLIHYTSTLQSGIPSRFSGSGSGRDYSFSISNLEPEDIATYYCLQYDHLLTFGAGTKLELKR
notes: also called anti-Tau mAb 7297-2M1
For the molecule B8, the Kd in the test with eTau1 worked out at 0.1 nM; with eTau2, 0.09 nM; in test [4], 2.21 nM. The binding result in the test with eTau3 and in the test with eTau4 [3] was “no binding” throughout.

B9: 7299-M5 (antibody, IgG2b, V domains shown)
VH: EVKLEESGAELVKPGASVKLSCKASGYTFISNWMHWVKQRPGQGLEWIGNIDPSDSETHYNQKFKDKATLTVDKSSSTAYMQLSSLTSEDSAVYYCARRDRDGYYFDYWGQGTTLTVSS
VL: DIVMTQSPLSLSVTIGQPASISCKSSQSLLYSDGKTYLNWLQQRPGQSPKRLVYQVSKLDPGIPDRFSGSGSETDFTLKLSRVEAEDLGVYYCLQGTYYPHTFGGGTKLEIKR
As for B9, the dissociation constant (Kd) in the test with eTau1 amounted to 0.6 nM; with eTau2, 1 nM; in the test with eTau3, 0.6 nM; in the test with eTau4 [3], 0.5 nM; in test [4], 0.511 nM.
